In publication doi:10.1101/2025.10.08.681084 one finds percent reduction of binding of heme-bound TrK13-WT against heme-free TrK13-WT data, which are given here for one substance.

The test has as its target recombinant Nrf2-6×his (human) (UniProt Q16236). In words: pull-down.
UniProt Q16236, sequence (Q16236 whole entry): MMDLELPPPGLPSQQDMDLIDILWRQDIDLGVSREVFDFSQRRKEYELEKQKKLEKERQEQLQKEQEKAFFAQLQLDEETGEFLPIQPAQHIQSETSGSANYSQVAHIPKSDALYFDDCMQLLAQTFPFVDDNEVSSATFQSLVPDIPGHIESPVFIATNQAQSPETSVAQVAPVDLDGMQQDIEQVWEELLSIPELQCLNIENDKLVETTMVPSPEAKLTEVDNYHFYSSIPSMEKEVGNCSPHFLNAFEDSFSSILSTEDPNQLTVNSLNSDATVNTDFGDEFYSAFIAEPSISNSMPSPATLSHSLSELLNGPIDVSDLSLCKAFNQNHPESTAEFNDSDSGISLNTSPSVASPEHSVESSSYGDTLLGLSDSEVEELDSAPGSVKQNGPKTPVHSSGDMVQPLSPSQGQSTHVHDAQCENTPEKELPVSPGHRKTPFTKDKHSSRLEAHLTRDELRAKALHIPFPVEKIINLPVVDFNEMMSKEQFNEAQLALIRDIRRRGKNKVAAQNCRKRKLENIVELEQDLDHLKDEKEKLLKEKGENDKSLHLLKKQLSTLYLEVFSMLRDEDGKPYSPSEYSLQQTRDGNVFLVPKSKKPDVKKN

As for “recombinant K13 (TrK13-WT) (domain or fragment)”, the percent reduction of binding of heme-bound TrK13-WT against heme-free TrK13-WT was found to be 26%.
